Experimental data published in the supplement of paper PMC10567573.

B1: LPCAT4 (parent)
chain: HDPLYGKLFSTYLRPPHTSRGTSQ
B2: TRIM55 (parent)
chain: FQASNPYLPTRGGTTMASGGRFRC

Variants of: B1
Test: protein stability index of a GFP-peptide fusion (GPS, HEK-293T) (PSI 1-6); higher = more stable
Conditions: c terminus: a fixed tail appended
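Note: lentivirally expressed fusions sorted by FACS into six bins by GFP to DsRed ratio, PSI derived from sequencing read proportions per bin multiplied by bin number.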

Protein stability index of substitutions, site by site:
T22: F 2.42, Y 2.13, C 2.43, P 2.59, S 2.74, M 2.72, G 2.75, K 2.61, I 2.22, W 1.98, D 2.6, H 2.81, A 2.66, E 3.04, N 2.8, L 2.81, V 2.12, R 2.48, Q 2.32
S23: G 2.18, R 2.45, C 2.61, E 2.64, Y 2.19, N 2.77, I 2.3, L 2.39, K 2.51, H 2.73, V 2.49, A 3, T 2.66, D 3.17, M 2.34, W 2.4, Q 2.52, P 2.87, F 2.09
Q24: A 2.28, V 2.42, C 2.64, D 3.28, L 2.29, I 2.11, Y 2.07, W 2.13, H 2.3, F 2.28, K 2.56, T 2.53, G 2.36, N 2.78, R 2.39, E 3.01, M 2.45, P 2.43, S 2.72
P16: Q 3.27, T 2.76, D 3.37, I 2.41, W 2.42, V 2.46, N 2.94, G 3.01, A 2.2, C 2.26, Y 2.22, F 1.77, K 3.01, S 2.67, R 2.77, H 2.52, M 3.13, L 2.68, E 3.19
T18: M 2.57, H 2.61, A 2.52, V 2.68, S 2.3, L 2.42, K 2.65, P 2.45, F 2.24, W 2.12, D 2.83, G 2.41, C 2.66, N 3.05, R 2.57, Q 2.61, Y 2.29, E 2.6, I 2.52
G21: F 2.46, D 3.4, W 2, Y 1.87, P 2.56, M 2.67, Q 2.95, T 2.49, N 2.42, A 2.95, C 2.51, H 2.11, E 2.69, L 2.48, I 2.41, K 2.55, V 2.82, R 2.42, S 2.67
R20: F 2.17, K 2.8, G 2.83, E 3.53, W 2.2, Y 2.3, A 2.78, N 2.56, C 2.36, H 2.86, P 2.66, M 2.08, I 2.43, V 2.29, S 2.58, T 2.67, L 2.19, Q 2.85, D 2.67
P15: Q 2.47, M 2.51, S 2.48, W 2.37, E 2.13, V 2.42, L 2.27, C 2.11, T 1.88, A 2.7, G 3.2, K 2.6, F 2.08, H 2.47, Y 2.52, R 2.85, I 2.32, N 2.36, D 3.16
H17: N 2.59, V 2.53, F 2.9, Q 2.61, G 2.25, D 2.82, W 2.19, L 2.66, P 2.99, E 3.22, T 2.82, I 2.43, C 2.7, M 2.43, A 2.79, S 2.31, K 2.38, R 2.3, Y 2.53
S19: Y 2.38, T 2.61, D 3.1, R 2.74, L 2.36, M 2.35, N 3.12, E 2.44, P 2.7, Q 2.51, F 2.07, W 1.95, G 2.8, I 2.79, C 2.91, V 2.55, A 2.72, K 2.62, H 2.29

Variants of: B2
Test: as above
Conditions: c terminus: a fixed tail appended

Protein stability index: each site, then its substitutions
F1: R 3.57, N 3.55, V 3.16, A 3.51, K 3.41, D 3.43, I 3.13, E 3.59, H 3.24, G 3.91, L 3.37, P 3.91, T 3.49, C 2.2, Y 2.06, W 2.58, S 3.52, M 3.4, Q 3.91
L8: G 2.02, I 2.79, Q 2.22, P 1.92, A 1.81, R 2.54, V 2.03, F 1.63, C 3.09, S 2.7, H 1.56, N 2, E 3.39, M 1.26, T 2.79, D 2.55, K 1.14
Q2: T 1.68, H 2.99, Y 2.2, V 1.74, W 2.3, P 1.61, M 2, I 2.22, R 2.68, L 1.94, C 1.44, K 2.85, N 2.68, G 1.9, E 3.38, D 3.43, F 2.03, A 2.17, S 2.13
S4: N 1.72, I 1.88, F 2.57, M 2.09, P 1.8, L 1.66, Q 1.86, G 1.1, K 1.85, Y 2.12, T 2.81, C 2.64, R 1.44, D 1.24, V 2.34, A 2.11, E 1.95
P6: F 2.12, V 3.02, C 3.1, N 2.72, A 1.96, E 2.26, H 2.37, S 1.65, D 2.07, I 1.85, T 1.93, L 2.65, G 2.06, Y 2.42, W 1.93, K 3.13, Q 2.48
A3: H 1.24, C 1.32, K 1.69, N 2.18, P 2.02, V 2.28, M 1.83, L 1.8, Y 1.95, Q 2.84, E 2.55, R 2.46, W 2.95, I 1.76, T 1.54, S 2.27, G 1.95, F 2.69, D 2.71
N5: G 1.41, C 2.6, V 2.1, A 2.65, S 3.55, R 1.7, E 2.58, Q 2.33, D 2.81, L 2.04, Y 2.14, I 2.51, F 3.23, H 3.58, T 2, P 2.22, W 2.49, K 1.78
Y7: T 3.27, S 3.18, M 2.68, N 3.4, V 3.13, G 3.29, L 1.9, P 3.54, C 3.15, H 3.36, E 3.2, Q 3.45, I 2.83, K 2.91, F 2.43, D 3.76, A 3.52, R 3.25
